# Measurements as given in PMC2991502 (Cytoskeleton (Hoboken, N.J.), 2010).
# Biological target: Rabbit skeletal muscle actin (rabbit, UniProt P68135 1-377)
# Assay: co-sedimentation
binder,measurement,value
FRL2 FH1-FH2 I649A (amino acids 447-945 of the mouse protein) (domain or fragment) TSNQVHTLRRLIKEKEEAFQRRCHLEPSARGLESMGGEALARVGPTELTEGIPPSDLDLLAPAPPTEETLPLPPPPAPPLPPPPPPLPDKCPPAPPLPGAAPSVVLTVGLSAIRIKKPIKTKFRLPVFNWTALKPNQINGTVFSELDDEKILEDLDLDRFEELFKTKAQGPALDLICSKNKTAQKAASKVTLLEANRAKNLAATLRKAGRSAEEICRAIHTFDLQTLPVDFVECLMRFLPTEAEVKLLRQYERERQPLEELAAEDRFMLLFSKVERLTQRMAGMAFLGNFQDNLQMLTPQLNAIIAASASVKSSQKLKQMLEIILALGNYMNSSKRGAVYGFKLQSLDLLLDTKSTDRKMTLLHFIALTVKEKYPELANFWQELHFVEKAAAVSLENVLLDVKELGRGMELIRRECSIHDNSVLRNFLSTNEGKLDKLQRDAKTAEEAYNAVVRYFGESPKTTPPSVFFPVFVRFIRSYKEAEQENEARKKQEEVMREK,binding result,binds
